Assay results as given in patent publication US9290745B2, “Luciferase biosensor” (PROMEGA CORPORATION, priority 2003, dated 2016).
Entries after “also recorded” stand apart in the source; their conditions may differ.

Legend:
[1] = molecular target: cyclic AMP-dependent protein kinase (Homo sapiens, UniProt P17612); conditions: cited from earlier work
[2] = molecular target: T1, caspase-3 (Homo sapiens, UniProt P42574); format: biochemical
T1 construct: purchased BioMol
T1 sequence (P42574 29-175 limits assumed): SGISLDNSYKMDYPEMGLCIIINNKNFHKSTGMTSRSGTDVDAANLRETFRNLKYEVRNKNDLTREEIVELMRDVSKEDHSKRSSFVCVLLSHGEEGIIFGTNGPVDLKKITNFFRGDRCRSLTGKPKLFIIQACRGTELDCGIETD
T1 sequence (P42574 176-277 limits assumed): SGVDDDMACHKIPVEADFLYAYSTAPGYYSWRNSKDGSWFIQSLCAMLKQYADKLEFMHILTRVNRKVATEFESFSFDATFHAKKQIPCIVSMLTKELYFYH

[3] = molecular target: cyclic AMP dependent protein kinase catalytic subunit (Homo sapiens, UniProt P17612); conditions: cited from earlier work
[4] = molecular target: T2, enterokinase (Bos taurus, UniProt P98072); assay: Enterokinase assay with firefly luciferases having an internal enterokinase site; format: biochemical
T2 construct: purchased Invitrogen
T2 sequence (P98072 801-1035 limits assumed): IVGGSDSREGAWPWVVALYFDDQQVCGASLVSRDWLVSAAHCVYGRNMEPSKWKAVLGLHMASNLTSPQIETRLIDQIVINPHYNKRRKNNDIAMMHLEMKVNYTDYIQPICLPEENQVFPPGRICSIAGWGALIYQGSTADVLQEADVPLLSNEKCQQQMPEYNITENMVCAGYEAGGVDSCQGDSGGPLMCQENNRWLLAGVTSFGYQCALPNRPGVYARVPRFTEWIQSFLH

[5] = molecular target: T1, caspase-3; assay: Caspase-3 activation of circularly permuted firefly luciferase having a caspase-3 site; format: biochemical; conditions: TnT rabbit reticulocyte lysate

RRFS: Photinus pyralis luciferase, valine 217 mutated to arginine generating site RRFS (Sala-Newby et al.)
decrease of activity when phosphorylated [1]: up to 80%

Ac-DEVD-CHO
caspase-3 induced decrease of Cbg69DEVD luciferase activity in presence of caspase inhibitor [2]: decrease in activity was not observed

LRRASLG
reduction of activity on addition of kinase catalytic subunit [3]: 30%

B1: WT enzyme: parental (unmodified) firefly luciferase luc+ (protein)
chain: MEDAKNIKKGPAPFYPLEDGTAGEQLHKAMKRYALVPGTIAFTDAHIEVDITYAEYFEMSVRLAEAMKRYGLNTNHRIVVCSENSLQFFMPVLGALFIGVAVAPANDIYNERELLNSMGISQPTVVFVSKKGLQKILNVQKKLPIIQKIIIMDSKTDYQGFQSMYTFVTSHLPPGFNEYDFVPESFDRDKTIALIMNSSGSTGLPKGVALPHRTACVRFSHARDPIFGNQIIPDTAILSVVPFHHGFGMFTTLGYLICGFRVVLMYRFEEELFLRSLQDYKIQSALLVPTLFSFFAKSTLIDKYDLSNLHEIASGGAPLSKEVGEAVAKRFHLPGIRQGYGLTETTSAILITPEGDDKPGAVGKVVPFFEAKVVDLDTGKTLGVNQRGELCVRGPMIMSGYVNNPEATNALIDKDGWLHSGDIAYWDEDEHFFIVDRLKSLIKYKGYQVAPAELESILLQHPNIFDAGVAGLPDDDAGELPAAVVVLEHGKTMTEKEIVDYVASQVTTAKKLRGGVVFVDEVPKGLTGKLDARKIREILIKAKKGGKIAV
effect of enterokinase on luciferase activity [4]: no effect; also recorded: not affected; also recorded: not altered | luminescence reading (Turner 20/20 luminometer) ([4]; 0 minutes, with 1 U EKMax): 2561 | luminescence reading (Turner 20/20 luminometer) ([4]; 0 minutes, without EKMax): 2517 | luminescence reading (Turner 20/20 luminometer) ([4]; 15 minutes, with 1 U EKMax): 2905 | luminescence reading (Turner 20/20 luminometer) ([4]; 15 minutes, without EKMax): 2855 | luminescence reading (Turner 20/20 luminometer) ([4]; 30 minutes, with 1 U EKMax): 3190 | luminescence reading (Turner 20/20 luminometer) ([4]; 30 minutes, without EKMax): 2987 | effect of caspase-3 on activity [5]: not affected
